This note sets out measurements from article PMC4633989.

The target in this test is Nrx-1 C-term peptide (last 10 C-terminal residues of Drosophila Nrx-1) (Drosophila) (UniProt Q3KN41). The test can be described thus: ITC; Nrx-1 C-term peptide with the PDZ domains of Spn or Syd-1; details in the Supplementary Methods.
UniProt Q3KN41, sequence (Q3KN41 whole entry, looked up, the tested form may be a part): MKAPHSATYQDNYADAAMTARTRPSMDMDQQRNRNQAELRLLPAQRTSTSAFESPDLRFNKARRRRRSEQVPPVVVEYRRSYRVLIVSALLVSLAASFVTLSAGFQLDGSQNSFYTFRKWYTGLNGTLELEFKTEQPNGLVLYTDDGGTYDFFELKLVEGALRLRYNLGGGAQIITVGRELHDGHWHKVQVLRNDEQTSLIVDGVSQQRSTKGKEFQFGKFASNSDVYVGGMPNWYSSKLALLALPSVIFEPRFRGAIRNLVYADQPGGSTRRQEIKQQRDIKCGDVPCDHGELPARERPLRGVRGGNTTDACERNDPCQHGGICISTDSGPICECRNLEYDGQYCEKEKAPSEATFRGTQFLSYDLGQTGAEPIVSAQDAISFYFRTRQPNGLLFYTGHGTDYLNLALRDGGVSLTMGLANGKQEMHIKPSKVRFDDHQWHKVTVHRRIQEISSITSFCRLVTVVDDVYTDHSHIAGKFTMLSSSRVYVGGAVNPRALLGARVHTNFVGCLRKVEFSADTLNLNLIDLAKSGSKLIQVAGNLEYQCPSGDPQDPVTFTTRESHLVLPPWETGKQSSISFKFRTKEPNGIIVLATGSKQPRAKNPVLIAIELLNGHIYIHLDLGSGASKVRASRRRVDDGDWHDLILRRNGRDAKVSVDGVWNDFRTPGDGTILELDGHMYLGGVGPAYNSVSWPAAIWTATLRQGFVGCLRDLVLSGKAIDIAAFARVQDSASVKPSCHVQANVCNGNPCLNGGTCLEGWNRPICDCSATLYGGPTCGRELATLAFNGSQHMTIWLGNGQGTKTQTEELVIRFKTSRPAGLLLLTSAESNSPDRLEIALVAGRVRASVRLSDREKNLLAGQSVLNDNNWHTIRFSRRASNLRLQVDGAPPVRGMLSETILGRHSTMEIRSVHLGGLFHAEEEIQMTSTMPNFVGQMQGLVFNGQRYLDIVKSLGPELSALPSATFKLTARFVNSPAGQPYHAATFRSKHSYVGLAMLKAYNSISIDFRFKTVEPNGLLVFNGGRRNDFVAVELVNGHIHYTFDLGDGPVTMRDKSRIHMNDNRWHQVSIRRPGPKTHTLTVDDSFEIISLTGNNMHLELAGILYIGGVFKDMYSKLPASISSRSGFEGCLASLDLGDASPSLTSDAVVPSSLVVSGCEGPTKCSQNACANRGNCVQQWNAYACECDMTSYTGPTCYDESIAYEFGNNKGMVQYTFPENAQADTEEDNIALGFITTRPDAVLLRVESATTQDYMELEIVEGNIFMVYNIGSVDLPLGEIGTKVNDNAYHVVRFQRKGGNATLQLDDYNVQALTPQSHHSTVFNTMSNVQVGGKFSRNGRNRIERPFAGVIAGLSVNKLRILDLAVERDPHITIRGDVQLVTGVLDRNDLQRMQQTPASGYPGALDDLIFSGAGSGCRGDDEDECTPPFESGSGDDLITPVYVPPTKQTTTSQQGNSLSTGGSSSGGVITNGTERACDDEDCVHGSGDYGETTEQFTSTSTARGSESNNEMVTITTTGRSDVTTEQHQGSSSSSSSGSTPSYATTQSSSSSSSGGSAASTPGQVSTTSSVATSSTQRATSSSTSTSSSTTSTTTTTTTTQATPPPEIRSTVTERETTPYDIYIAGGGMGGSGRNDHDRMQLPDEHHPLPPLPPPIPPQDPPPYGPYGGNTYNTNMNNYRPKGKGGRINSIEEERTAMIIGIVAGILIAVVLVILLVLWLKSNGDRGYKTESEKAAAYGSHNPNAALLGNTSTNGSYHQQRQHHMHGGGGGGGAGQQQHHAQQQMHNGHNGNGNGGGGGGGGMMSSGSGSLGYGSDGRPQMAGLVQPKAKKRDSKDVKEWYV

“Drosophila Spn-PDZ domain (dmSpn residues 1,258-1,347) (domain or fragment)” yielded an equilibrium dissociation constant (Kd) of 50 µM.
The substance “Drosophila Syd-1-PDZ domain (dmSyd-1 residues 155-242) (domain or fragment)” yielded a Kd of 5 µM.
